The target of assay [1] is T1, murine TIM-3 expressed in cells (murine, UniProt Q8VIM0 20-281).
T1 construct: whole, on cells; also called mouse TIM-3
As to the kind of experiment: flow cytometry on cells expressing murine TIM-3.

The target in assay [2] is T2, human TIM-4 expressed in CHO cells (human, UniProt Q96H15 25-378).
T2 construct: whole, on cells
T2 sequence (looked up): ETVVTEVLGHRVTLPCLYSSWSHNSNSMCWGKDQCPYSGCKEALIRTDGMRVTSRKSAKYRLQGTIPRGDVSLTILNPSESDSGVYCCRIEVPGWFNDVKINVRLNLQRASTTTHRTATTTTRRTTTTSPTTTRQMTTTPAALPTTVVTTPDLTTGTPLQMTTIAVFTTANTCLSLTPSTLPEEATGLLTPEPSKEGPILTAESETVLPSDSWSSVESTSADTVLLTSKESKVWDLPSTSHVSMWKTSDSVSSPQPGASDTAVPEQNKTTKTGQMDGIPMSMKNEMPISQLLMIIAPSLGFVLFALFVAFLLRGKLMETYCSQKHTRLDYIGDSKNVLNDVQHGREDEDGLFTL
As to the kind of experiment: flow cytometry on CHO cells expressing human TIM-4.

In assay [3] the target is T3, human TIM-3 expressed on cells (human, UniProt Q8TDQ0 22-301).
T3 construct: also called huTIM-3; hTIM-3
As to the kind of experiment: flow cytometry on cells expressing human TIM-3. A general note: In flow cytometry, cells or beads pass a laser one at a time.

Assay [4] has as its target T3, human TIM-3 expressed on cells. Nature of the assay: flow cytometry on activated human PBMCs, CD4 gated.
The target is the same in assay [5]. As to the kind of experiment: flow cytometry on activated human PBMCs, CD8 gated.
For assay [6], the target named is T4, cynomolgus TIM-3 expressed on transfected cells (cynomolgus monkey, UniProt A0A2K5U3G7 22-294).
T4 construct: whole, on cells; also called cynoTIM-3; cynomolgus monkey TIM-3
T4 sequence: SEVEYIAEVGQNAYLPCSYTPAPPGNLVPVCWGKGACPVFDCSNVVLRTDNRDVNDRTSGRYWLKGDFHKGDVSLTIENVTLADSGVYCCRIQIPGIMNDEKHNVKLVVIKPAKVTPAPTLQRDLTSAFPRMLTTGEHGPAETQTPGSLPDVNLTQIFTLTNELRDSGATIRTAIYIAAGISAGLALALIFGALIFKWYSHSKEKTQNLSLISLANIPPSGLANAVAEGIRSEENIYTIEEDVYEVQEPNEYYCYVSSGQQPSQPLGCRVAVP
As to the kind of experiment: flow cytometry (Median FI-FITC), CynoTim-3-300.19 cells.

For assay [7], the target named is T3, human TIM-3 expressed on cells. Nature of the assay: flow cytometry, 300.19 huTIM3 cells, detected by secondary Ab-FITC.
Assay [8] has as its target TIM-3 (antigen; species and construct not stated for the assay) (UniProt Q8TDQ0 22-202, limits assumed). Nature of the assay: FACS competition binding against the parent murine ABTIM3; cells not named on the sheet.
The target of assay [9] is T3, human TIM-3 expressed on cells. Nature of the assay: flow cytometry competition on 300.19 hTIM3 cells in presence of ABTIM3; signal is MFI of 0.51ug/ml 22C1-PE.

T1 sequence (Q8VIM0 20-281): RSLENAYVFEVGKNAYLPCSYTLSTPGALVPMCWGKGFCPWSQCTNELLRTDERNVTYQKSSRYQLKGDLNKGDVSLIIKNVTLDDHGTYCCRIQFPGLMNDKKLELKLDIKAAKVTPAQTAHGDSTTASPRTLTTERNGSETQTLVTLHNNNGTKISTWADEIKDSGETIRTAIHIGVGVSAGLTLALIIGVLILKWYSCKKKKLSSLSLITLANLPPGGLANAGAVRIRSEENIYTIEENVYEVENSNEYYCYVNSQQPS

B1: ABTIM3 (antibody, V domains shown)
VH: QVQLQQPGAELVKPGASVKMSCKASGYTFTSYNMHWIKQTPGQGLEWIGDIYPGNGDTSYNQKFKGKATLTADKSSSTVYMQLSSLTSEDSAVYYCARVGGAFPMDYWGQGTSVTVSS
VL: DIVLTQSPASLAVSLGQRATISCRASESVEYYGTSLMQWYQQKPGQPPKLLIYAASNVESGVPARFSGSGSGTDFSLNIHPVEEDDIAIYFCQQSRKDPSTFGGGTKLEIK
notes: Murine monoclonal antibody; also called murine anti-TIM-3 antibody ABTIM3; parent murine anti-TIM-3 antibody
Regarding B1, the binding result in assay [1] and in assay [2] was “no binding” throughout. Further, the Kd (commonly the concentration at which binding is half-saturated) in assay [3] was 1.04 nM; in assay [4] it was 0.29 nM; in assay [5], 0.3 nM. The EC50 (read off the curve) (usually the midpoint of the concentration-response curve) was approximately 0.3 µg/mL in [6] and approximately 0.1 µg/mL in assay [7]. Besides, the “IC50 (read off the curve)” value in [8] and in assay [9] was approximately 0.2 µg/mL throughout.

The record behind these values is patent US20250213684A1 (Novartis, published 2025).
